{"source": "paper PMC8930183", "about": "“Structure of the Pf12 and Pf41 heterodimeric complex of Plasmodium falciparum 6-cysteine proteins” (FEMS Microbes, 2022)", "parents": {"B1": {"name": "Pf41 D1D2 (residues 21-368), untagged [Plasmodium falciparum] / octa-histidine tagged Pf12 D1D2 (residues 28-304) [Plasmodium falciparum] (parent complex)", "chain 1": "KSHKCDFTKEKYLLSGEKEVSCEIDANPSDDITFICPNKIDSLCFHTVNISKNINQNKSTMSIQDLLYGSVVYGNTLFISPYVRTNTPFYCFCNLDTVTIQKFLKINRFLKDDDELSEADVMKHLKGGNVSEAQADEYLNKALNRFKKMKDLSKFFNDQADNTTKLNLPKSLNIPNDILNYDVYNSSNNRNDIVVKDEVTNKQIISKRGIMSVFVRSNNNVIKGCDFGNNNKNYFSHPISVAGKVNNKVCKIQGKPGELVGFKCAFEENGKVEPPNCFDQVLHKNKVTDLKTLIPGYASYTNKHSSKYPYYLKIPHFVNEQYTIQCKCKSNNSQNEYTFELDIQPGES", "chain 2": "NLTCDFNDVYKLEFHPNQQTSVTKLCNLTPNVLEKVTIKCGSDKLNYNLYPPTCFEEVYASRNMMHLKKIKEFVIGSSMFMRRSLTPNKINEVSFRIPPNMMPEKPIYCFCENKKTITINGSNGNPSSKKDIINRGIVEIIIPSLNEKVKGCDFTTSESTIFSKGYSINEISNKSSNNQQDIVCTVKAHANDLIGFKCPSNYSVEPHDCFVSAFNLSGKNENLENKLKLTNIIMDHYNNTFYSRLPSLISDNWKFFCVCSKDNEKKLVFTVEASISS"}}}
{"variants_of": "B1", "experiment": "BLI; mutant at 1000 nM, 500 nM, and 250 nM; binding to immobilised WT Pf12; parent: 100; read off a plot", "units": {"percent of parent": "% WT"}}
{"variant": "chain 1 KSHKCDFTKEKYLLSGEKEVSCEIDANPSDDITFICPNKIDSLCFHTVNISKNINQNKSTMSIQDLLYGSVVYGNTLFISPYVRTNTPFYCFCNLDTVTIQKFLKINRFLKDDDELSEADVMKHLKGGNVSEAQADEYLNKALNRFKKMKDLSKFFNDQADNTTKLNLPKSLNIPNDILNYDVYNSSNNRNDIVVKDEVTNKQIISKRGIMSVFVRSNNNVIKGCDFGNNNKNYFSHPISVAGKVNNKVCKIQGKPGELVGFKCAFEENGKVEPPNCFDQVLHKNKVTDLKTLIPGYASYTNKHSSKYPYYLKIPHFVNEQYTIQCKCKSNNSQNEYTFELDIQPGAS", "note": "[chain 1 E347A]", "percent of parent": "~18"}
{"variant": "chain 1 KSHKCDFTKEKYLLSGEKEVSCEIDANPSDDITFICPNKIDSLCFHTVNISKNINQNKSTMSIQDLLYGSVVYGNTLFISPYVRTNTPFYCFCNLDTVTIQKFLKINRFLKDDDELSEADVMKHLKGGNVSEAQADEYLNKALNRFKKMKDLSKFFNDQADNTTKLNLPKSLNIPNDILNYDVYNSSNNRNDIVVKDEVTNKQIISKRGIMSVFVRSNNNVIKGCDFGNNNKNYFSHPISVAGKVNNKVCKIQGKPGELVGFKCAFEENGKVEPPNCFDQVLHKNKVTDLKTLIPGYASYTNKHSSKYPYYLKIPAFVNEQYTIQCKCKSNNSQNEYTFELDIQPGES", "note": "[chain 1 H316A]", "percent of parent": "~75"}
{"variant": "chain 1 KSHKCDFTKEKYLLSGEKEVSCEIDANPSDDITFICPNKIDSLCFHTVNISKNINQNKSTMSIQDLLYGSVVYGNTLFISPYVRTNTPFYCFCNLDTVTIQKFLKINRFLKDDDELSEADVMKHLKGGNVSEAQADEYANKALNRFKKMKDLSKFFNDQADNTTKLNLPKSLNIPNDILNYDVYNSSNNRNDIVVKDEVTNKQIISKRGIMSVFVRSNNNVIKGCDFGNNNKNYFSHPISVAGKVNNKVCKIQGKPGELVGFKCAFEENGKVEPPNCFDQVLHKNKVTDLKTLIPGYASYTNKHSSKYPYYLKIPHFVNEQYTIQCKCKSNNSQNEYTFELDIQPGES", "note": "[chain 1 L139A]", "percent of parent": "~4"}
{"variant": "chain 1 KSHKCDFTKEKYLLSGEKEVSCEIDANPSDDITFICPNKIDSLCFHTVNISKNINQNKSTMSIQDLLYGSVVYGNTLFISPYVRTNTPFYCFCNLDTVTIQKFLKINRFLKDDDELSEADVMKHLKGGNVSEAQADEYLNKAANRFKKMKDLSKFFNDQADNTTKLNLPKSLNIPNDILNYDVYNSSNNRNDIVVKDEVTNKQIISKRGIMSVFVRSNNNVIKGCDFGNNNKNYFSHPISVAGKVNNKVCKIQGKPGELVGFKCAFEENGKVEPPNCFDQVLHKNKVTDLKTLIPGYASYTNKHSSKYPYYLKIPHFVNEQYTIQCKCKSNNSQNEYTFELDIQPGES", "note": "[chain 1 L143A]", "percent of parent": "~1"}
{"variant": "chain 1 KSHKCDFTKEKYLLSGEKEVSCEIDANPSDDITFICPNKIDSLCFHTVNISKNINQNKSTMSIQDLLYGSVVYGNTLFISPYVRTNTPFYCFCNLDTVTIQKFLKINRFLKDDDELSEADVMKHLKGGNVSEAQADEYLNKALNRFKKMKDLSKFFNDQADNTTKLNLPKSLNIPNDILNYDVYNSSNNRNDIVVKDEVTNKQIISKRGIMSVFVRSNNNVIKGCDFGNNNKNYFSHPISVAGKVNNKVCKIQGKPGELVGFKCAFEENGKVEPPNCFDQVLHKNKVTDLKTLIPGYASYTNKHSSKYPYYLKIPHAVNEQYTIQCKCKSNNSQNEYTFELDIQPGES", "note": "[chain 1 F317A]", "percent of parent": "~1"}
{"variant": "chain 1 KSHKCDFTKEKYLLSGEKEVSCEIDANPSDDITFICPNKIDSLCFHTVNISKNINQNKSTMSIQDLLYGSVVYGNTLFISPYVRTNTPFYCFCNLDTVTIQKFLKINRFLKDDDELSEADVMKHLKGGNVSEAQADEYLNKALNRFKKMKDLSKFFNDQADNTTKLNLPKSLNIPNDILNYDVYNSSNNRNDIVVKDEVTNKQIISKRGIMSVFVRSNNNVIKGCDFGNNNKNYFSHPISVAGKVNNKVCKIQGKPGELVGFKCAFEENGKVEPPNCFDQVLHKNKVTDLKTLIPGYASYTNKHSSKYPYYLKIPHFVNAQYTIQCKCKSNNSQNEYTFELDIQPGES", "note": "[chain 1 E320A]", "percent of parent": "~103"}
{"variant": "chain 1 KSHKCDFTKEKYLLSGEKEVSCEIDANPSDDITFICPNKIDSLCFHTVNISKNINQNKSTMSIQDLLYGSVVYGNTLFISPYVRTNTPFYCFCNLDTVTIQKFLKINRFLKDDDELSEADVMKHLKGGNVSEAQADEYLNKALNRFKKMKDLSKFFNDQADNTTKLNLPKSLNIPNDILNYDVYNSSNNRNDIVVKDEVTNKQIISKRGIMSVFVRSNNNVIKGCDFGNNNKNYFSHPISVAGKVNNKVCKIQGKPGELVGFKCAFEENGKVEPPNCFDQVLHKNKVTDLKTLIPGYASYTNKHSSKYPYYLKIPHFVAEQYTIQCKCKSNNSQNEYTFELDIQPGES", "note": "[chain 1 N319A]", "percent of parent": "~36"}
{"variant": "chain 1 KSHKCDFTKEKYLLSGEKEVSCEIDANPSDDITFICPNKIDSLCFHTVNISKNINQNKSTMSIQDLLYGSVVYGNTLFISPYVRTNTPFYCFCNLDTVTIQKFLKINRFLKDDDELSEADVMKHLKGGNVSEAQADEYLNKALNRAKKMKDLSKFFNDQADNTTKLNLPKSLNIPNDILNYDVYNSSNNRNDIVVKDEVTNKQIISKRGIMSVFVRSNNNVIKGCDFGNNNKNYFSHPISVAGKVNNKVCKIQGKPGELVGFKCAFEENGKVEPPNCFDQVLHKNKVTDLKTLIPGYASYTNKHSSKYPYYLKIPHFVNEQYTIQCKCKSNNSQNEYTFELDIQPGES", "note": "[chain 1 F146A]", "percent of parent": "~37"}
